Source: patent publication US20150037339A1 (Regeneron, published 2015)

Columns and labels:
Activin AB [1] = biological target: T1, Activin AB (human, UniProt P08476 311-426; P09529 293-407); assay: SPR (Biacore), mAb captured on anti-Fc, Activin AB injected, 37 C
T1 construct: Heterodimer of one betaA and one betaB subunit; bought (R&D Systems #1006-AB-005 / #1066-AB)
T1 chain 1: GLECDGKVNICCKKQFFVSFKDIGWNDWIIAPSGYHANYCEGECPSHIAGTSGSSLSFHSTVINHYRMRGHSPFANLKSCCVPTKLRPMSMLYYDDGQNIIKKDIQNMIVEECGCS
T1 chain 2: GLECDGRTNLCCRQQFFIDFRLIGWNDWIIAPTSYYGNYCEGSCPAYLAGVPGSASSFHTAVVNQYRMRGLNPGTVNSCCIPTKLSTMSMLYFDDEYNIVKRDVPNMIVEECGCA
Procedure: (§1) Antibody-antigen association was monitored for 240 seconds while dissociation in buffer was monitored for 600 seconds. Kinetic association and dissociation rate constants were determined by processing and fitting the data using Scrubber software version 2.0c. Binding equilibrium dissociation constants (KD) and dissociative half-lives (t_{1/2}) were then calculated from the kinetic rate constants as: KD (M)=kd/kₐ and t_{1/2} (min)=[ln 2/(60*kd)]. (NB=no binding observed under the conditions used; NT=not tested).

Activin AB [2] = biological target: T1, Activin AB; assay: SPR (Biacore), mAb captured on anti-Fc, Activin AB injected, 25 C
Procedure: as §1

Activin A [3] = biological target: T2, Activin A (human, UniProt P08476 311-426); assay: cell-based or functional assay
T2 sequence: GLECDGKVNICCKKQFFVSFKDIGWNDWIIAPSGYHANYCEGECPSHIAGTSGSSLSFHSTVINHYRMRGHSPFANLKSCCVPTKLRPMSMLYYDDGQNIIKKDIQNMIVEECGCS

Activin AB [4] = biological target: T1, Activin AB; assay: cell-based or functional assay
Activin B [5] = biological target: T3, Activin B (human, UniProt P09529 293-407); assay: cell-based or functional assay
T3 chain: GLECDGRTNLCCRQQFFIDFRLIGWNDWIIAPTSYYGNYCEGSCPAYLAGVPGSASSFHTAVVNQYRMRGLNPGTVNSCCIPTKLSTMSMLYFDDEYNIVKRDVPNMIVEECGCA

Activin AC [6] = biological target: T4, Activin AC (human, UniProt P55103 237-352); assay: cell-based or functional assay
T4 sequence 1: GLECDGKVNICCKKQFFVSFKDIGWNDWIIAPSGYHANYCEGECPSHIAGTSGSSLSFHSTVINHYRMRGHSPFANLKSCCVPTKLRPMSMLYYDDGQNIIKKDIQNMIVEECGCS
T4 sequence 2: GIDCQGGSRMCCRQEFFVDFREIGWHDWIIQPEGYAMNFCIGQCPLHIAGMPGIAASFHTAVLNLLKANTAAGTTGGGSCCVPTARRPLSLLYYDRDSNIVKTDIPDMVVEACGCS

Activin AC [7] = biological target: T4, Activin AC; assay: SPR (Biacore), mAb captured on anti-Fc, Activin AC injected, 37 C
Procedure: as §1

Activin AC [8] = biological target: T4, Activin AC; assay: SPR (Biacore), mAb captured on anti-Fc, Activin AC injected, 25 C
Procedure: as §1

hBMP2 = biological target: T5, hBMP2 (human, UniProt P12643 283-396); assay: SPR (Biacore 4000), captured on anti-human Fc, 200 nM ligand injected, 37 C
T5 construct: Bought protein; also called BPM2
T5 sequence (P12643 283-396 limits assumed): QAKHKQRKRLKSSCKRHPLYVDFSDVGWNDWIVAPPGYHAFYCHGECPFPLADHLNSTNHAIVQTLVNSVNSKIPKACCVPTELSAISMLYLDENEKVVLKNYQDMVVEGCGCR
Procedure: (§2) For the binding experiment, a Biacore 4000 instrument was used. […] All Biacore binding studies were performed in HBS-T running buffer (0.01 M HEPES pH 7.4, 0.5 M NaCl, 3 mM EDTA, 0.5 mg/ml bovine serum albumin, 0.05% v/v Surfactant P20). […] All binding measurements were performed at 37° C. […] Over the captured antibody surface was injected the TGF-beta family ligands through concentrations ranging from 3.1 nM to 200 nM.

GDF11 = biological target: T6, GDF11 (human, UniProt O95390 299-407); assay: as above
T6 construct: Bought protein; also called hGDF11
T6 sequence (O95390 299-407 limits assumed): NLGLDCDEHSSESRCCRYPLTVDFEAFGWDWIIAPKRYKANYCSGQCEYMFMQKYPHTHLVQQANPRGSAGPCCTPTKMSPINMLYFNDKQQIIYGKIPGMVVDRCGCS
Procedure: as §2

Activin A [9] = biological target: T2, Activin A; assay: as above
Procedure: as §2

hBMP9 = biological target: T7, hBMP9 (human, UniProt Q9UK05 320-429); assay: as above
T7 construct: Bought protein
T7 sequence (looked up): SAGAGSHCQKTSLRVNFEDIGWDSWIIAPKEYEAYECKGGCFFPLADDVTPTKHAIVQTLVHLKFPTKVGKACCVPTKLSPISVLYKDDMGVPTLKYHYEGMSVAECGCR
Procedure: as §2

hBMP6 = biological target: T8, hBMP6 (human, UniProt P22004 382-513, limits assumed); assay: as above
T8 construct: Bought protein
T8 sequence (looked up): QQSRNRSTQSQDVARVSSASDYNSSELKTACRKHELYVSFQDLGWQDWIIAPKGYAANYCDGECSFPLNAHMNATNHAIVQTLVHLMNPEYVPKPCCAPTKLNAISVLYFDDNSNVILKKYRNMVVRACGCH
Procedure: as §2

Activin AB [10] = biological target: T1, Activin AB; assay: as above
Procedure: as §2

Activin B [11] = biological target: T3, Activin B; assay: as above
Procedure: as §2

Activin AC [12] = biological target: T4, Activin AC; assay: as above
Procedure: as §2

GDF8 = biological target: T9, GDF8 (human, UniProt O14793 267-375); assay: as above
T9 construct: Bought (R&D Systems #788-G8); also called hGDF8; growth and differentiation factor-8
Procedure: as §2

hBMP4 = biological target: T10, hBMP4 (human, UniProt P12644 293-408); assay: as above
T10 construct: Bought protein
T10 sequence (looked up): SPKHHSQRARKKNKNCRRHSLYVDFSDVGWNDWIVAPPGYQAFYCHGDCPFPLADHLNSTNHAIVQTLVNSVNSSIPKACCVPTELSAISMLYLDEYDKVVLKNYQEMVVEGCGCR
Procedure: as §2

B1: H4H10436P2 (antibody, human IgG4, V domains shown)
VH: QVQLVESGGGVVQPGRSLRLTCVASGFTVSSYGMHWVRQAPGKGLEWVAVMFYDESKKYYADSVKGRFTISRDNSKNTLYLQMNSLRVEDTAVYYCARDEQLDFEYWGQGTLVTVSS
VL: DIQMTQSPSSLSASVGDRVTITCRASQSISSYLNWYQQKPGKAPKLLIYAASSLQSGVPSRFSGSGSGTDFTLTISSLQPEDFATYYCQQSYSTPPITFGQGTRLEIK
Activin AB [1]
  50 nM Ag Bound (RU): 33.9 RU
  Kd: 0.0443 nM
  koff: 0.000458 s⁻¹
  kon: 1.03e+07 M⁻¹ s⁻¹
  t1/2: 25.2 min
Activin AB [2]
  50 nM Ag Bound (RU): 28.2 RU
  Kd: 0.0341 nM
  koff: 0.000261 s⁻¹
  kon: 7.66e+06 M⁻¹ s⁻¹
  t1/2: 44.2 min
Activin A [3]
  IC50 [M], inhibition of 100 pM Activin A in A204/CAGAx12-Luc Smad2/3-luciferase bioassay: 2e-10 M
Activin AB [4]
  IC50 [M], inhibition of 30 pM Activin AB in A204/CAGAx12-Luc Smad2/3-luciferase bioassay: 1.4e-10 M
Activin B [5]
  IC50 [M], inhibition of 50 pM Activin B in A204/CAGAx12-Luc Smad2/3-luciferase bioassay: 1.3e-10 M
Activin AC [6]
  IC50 [M], inhibition of 4 nM Activin AC in A204/CAGAx12-Luc Smad2/3-luciferase bioassay: 1.3e-09 M
Activin AC [7]
  50 nM Ag Bound (RU): 32.6 RU
  Kd: 3.75 nM
  koff: 0.00331 s⁻¹
  kon: 881000 M⁻¹ s⁻¹
  t1/2: 3.5 min
Activin AC [8]
  50 nM Ag Bound (RU): 30.1 RU
  Kd: 2.24 nM
  koff: 0.00156 s⁻¹
  kon: 698000 M⁻¹ s⁻¹
  t1/2: 7.4 min
hBMP2
  binding response (resonance units) for 200 nM ligand: 14.9 RU
GDF11
  binding response (resonance units) for 200 nM ligand: 0 RU
Activin A [9]
  binding response (resonance units) for 200 nM ligand: 56.5 RU
hBMP9
  binding response (resonance units) for 200 nM ligand: 11.7 RU
hBMP6
  binding response (resonance units) for 200 nM ligand: 4 RU
Activin AB [10]
  binding response (resonance units) for 200 nM ligand: 54.3 RU
Activin B [11]
  binding response (resonance units) for 200 nM ligand: 60.1 RU
Activin AC [12]
  binding response (resonance units) for 200 nM ligand: 55.6 RU
GDF8
  binding response (resonance units) for 200 nM ligand: -0.5 RU
hBMP4
  binding response (resonance units) for 200 nM ligand: 19.3 RU
